How the values were obtained:
[1] = target: CD22 construct with smaller N-linked glycans (human) (UniProt P20273); assay: BLI
[2] = target: T1, CD22 extracellular domain (CD22 ECD) produced in HEK293F cells (Homo sapiens, UniProt P20273); assay: ITC
[3] = target: T1, CD22 extracellular domain (CD22 ECD) …; assay: BLI

T1 sequence (P20273 20-687): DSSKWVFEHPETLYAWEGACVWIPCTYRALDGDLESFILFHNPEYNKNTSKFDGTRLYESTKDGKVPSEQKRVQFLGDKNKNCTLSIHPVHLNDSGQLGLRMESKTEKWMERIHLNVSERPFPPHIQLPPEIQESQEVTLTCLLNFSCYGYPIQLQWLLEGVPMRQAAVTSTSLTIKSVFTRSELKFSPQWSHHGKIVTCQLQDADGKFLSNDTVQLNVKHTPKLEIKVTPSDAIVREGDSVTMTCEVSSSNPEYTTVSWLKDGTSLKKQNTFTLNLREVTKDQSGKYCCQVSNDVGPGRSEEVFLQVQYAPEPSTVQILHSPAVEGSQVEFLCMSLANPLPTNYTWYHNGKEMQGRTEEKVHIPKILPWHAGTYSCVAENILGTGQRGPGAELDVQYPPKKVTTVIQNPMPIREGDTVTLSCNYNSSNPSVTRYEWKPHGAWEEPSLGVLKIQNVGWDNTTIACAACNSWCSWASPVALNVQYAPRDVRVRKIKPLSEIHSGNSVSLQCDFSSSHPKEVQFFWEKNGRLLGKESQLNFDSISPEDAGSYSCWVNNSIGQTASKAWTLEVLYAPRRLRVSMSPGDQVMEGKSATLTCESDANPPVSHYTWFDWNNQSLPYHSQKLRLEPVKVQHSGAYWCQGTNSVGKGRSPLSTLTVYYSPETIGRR
Sequence of CD22 construct with smaller N-linked glycans (human) (P20273 20-687): as above

Kd [1]: 24 nM | Kd [2]: 188 nM | Kd [3]: 327 nM
B1: epratuzumab Fab (Fab, V domains shown)
VH: QVQLVQSGAEVKKPGSSVKVSCKASGYTFTSYWLHWVRQAPGQGLEWIGYINPRNDYTEYNQNFKDKATITADESTNTAYMELSSLRSEDTAFYFCARRDITTFYWGQGTTVTVSS
VL: DIQLTQSPSSLSASVGDRVTMSCKSSQSVLYSANHKNYLAWYQQKPGKAPKLLIYWASTRESGVPSRFSGSGSGTDFTLTISSLQPEDIATYYCHQYLSSWTFGGGTKLEIK
